{"source": "paper PMC5380474", "about": "(Molecular microbiology, 2017)", "assay_in_all_cases": "cross-linking", "key": {"[1]": {"biological_target": "the molecule itself"}, "[2]": {"biological_target": "the molecule itself", "remark": "listed apart in the source"}, "[3]": {"biological_target": "the molecule itself", "remark": "listed apart in the source"}}, "note": "Like-named read-outs stand apart in the source and are kept apart here."}
{"protein": "FLAG-tagged FlhA D170C/R185C (natural protein) MANLVAMLRLPSNLKSTQWQILAGPILILLILSMMVLPLPAFILDLLFTFNIALSIMVLLVAMFTQRTLDFAAFPTILLFTTLLRLALNVASTRIILMEGHTGAAAAGKVVEAFGHFLVGGNFAIGIVVFIILVIINFMVITKGAGRIAEVGARFVLDGMPGKQMAIDACLNAGLIGEDEAKKRCSEVTQEADFYGSMDGASKFVRGDAIAGILIMVINVVGGLLVGVLQHGMSIGSAAESYTLLTIGDGLVAQIPALVISTAAGVIVTRVSTDQDVGEQMVGQLFSNPRVMLLAAAVLGLLGMVPGMPNLVFLLFTAALLGLAWWLRGREEKAPEEPQPVKMPENNSVVEATWNDVQLEDSLGMEVGYRLIPMVDFQQDGELLGRIRSIRKKFAQDMGFLPPVVHIRDNMDLQPARYRILMKGVEIGSGDAYPGRWLAINPGTAAGTLPGEKTVDPAFGLDAIWIESALKEQAQIQGFTVVEASTVVATHLNHLIGQFSAELFGRQEAQQLLDRVSQEMPKLTEDLVPGVVTLTTLHKVLQNLLAEKVPIRDMRTILETLAEHAPLQSDPHELTAVVRVALGRAITQQWFPGNEEVQVIGLDTALERLLLQALQGGGGLEPGLADRLLAQTQEALSRQEMLGAPPVLLVNHALRPLLSRFLRRSLPQLVVLSNLELSDNRHIRMTATIGGK", "values": [{"measurement": "stoichiometry N", "setting": "[1]", "result": 7}, {"measurement": "stoichiometry N", "setting": "[2]", "result": 5}, {"measurement": "stoichiometry N", "setting": "[3]", "result": 9}]}
